# B1: HBC34-V35-MLNS-GAALIE (antibody, human IgG1, lambda)
# heavy: ELQLVESGGGWVQPGGSQRLSCAASGRIFRSFYMSWVRQAPGKGLEWVATINQDGSEKLYVDSVKGRFTISRDNAKNSLFLQMNNLRVEDTAVYYCAAWSGNSGGMDVWGQGTTVSVSSASTKGPSVFPLAPSSKSTSGGTAALGCLVKDYFPEPVTVSWNSGALTSGVHTFPAVLQSSGLYSLSSVVTVPSSSLGTQTYICNVNHKPSNTKVDKKVEPKSCDKTHTCPPCPAPELLAGPSVFLFPPKPKDTLMISRTPEVTCVVVDVSHEDPEVKFNWYVDGVEVHNAKTKPREEQYNSTYRVVSVLTVLHQDWLNGKEYKCKVSNKALPLPEEKTISKAKGQPREPQVYTLPPSRDELTKNQVSLTCLVKGFYPSDIAVEWESNGQPENNYKTTPPVLDSDGSFFLYSKLTVDKSRWQQGNVFSCSVLHEALHSHYTQKSLSLSPGK
# light: SYELTQPPSVSVSPGQTVSIPCSGDKLGNKNVAWFQHKPGQSPVLVIYEVKYRPSGIPERFSGSNSGNTATLTISGTQAMDEAAYFCQTFDSTTVVFGGGTRLTVLGQPKAAPSVTLFPPSSEELQANKATLVCLISDFYPGAVTVAWKADSSPVKAGVETTTPSKQSNNKYAASSYLSLTPEQWKSHRSYSCQVTHEGSTVEKTVAPTECS
# Tests used:
# [1] = target: T1, Human complement component C1q (human, UniProt P02745 23-245; P02746 28-253; P02747 29-245); experiment: BLI (Octet RED96); IgG captured through the Fab on anti-human Fab (CH1) sensors
# T1 construct: mature; also called purified human C1q
# Experimental: IgG-loaded sensors were then exposed for 4 minutes to a solution of kinetics buffer (pH 7.1) containing 3 μg/ml of purified human C1q (left part of the plot), followed by a dissociation step in the same buffer for 4 additional minutes (right part of the plot). Association and dissociation profiles were measured in real time as change in the interference pattern using an Octet RED96 (FortéBio).
# [2] = target: T2, Recombinant human FcγRIIIa (V158) (human, UniProt P08637 17-208); experiment: BLI (Octet RED96); His-tagged FcγR on anti-penta-His sensors, 2 µg/ml mAb cross-linked with anti-human F(ab')2
# T2 construct: also called FcγRIIIa allele V158; His-tagged human FcγRIIIa V158
# Experimental: (§1) Briefly, His-tagged human FcγRs (FcγRIIa allele H131, FcγRIIa allele R131, FcγRIIAa allele F158, FcγRIIIa allele V158 and FcγRIIb) at 2 μg/ml were captured onto anti-penta-His sensors for 6 minutes. FcγR-loaded sensors were then exposed for 4 minutes to a solution of kinetics buffer (pH 7.1) containing 2 μg/ml of each mAb in the presence 1 μg/ml of affiniPure F(ab′)₂ Fragment Goat Anti-Human IgG, F(ab′)₂ fragment-specific (to cross-link human mAbs through the Fab fragment), followed by a dissociation step in the same buffer for 4 additional minutes (right part of the plot). Association and dissociation profiles were measured in real time as change in the interference pattern using an Octet RED96 (FortéBio).
# [3] = target: T3, Recombinant human FcγRIIa (H131) (human, UniProt P12318 34-218); experiment: as above
# T3 construct: also called FcγRIIa allele H131; His-tagged human FcγRIIa H131
# T3 sequence: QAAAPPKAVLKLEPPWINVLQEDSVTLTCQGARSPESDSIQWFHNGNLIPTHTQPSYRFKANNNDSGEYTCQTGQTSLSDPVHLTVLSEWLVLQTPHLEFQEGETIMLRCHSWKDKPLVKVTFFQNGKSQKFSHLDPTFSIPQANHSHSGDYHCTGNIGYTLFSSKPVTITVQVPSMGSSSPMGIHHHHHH
# Experimental: as §1
# [4] = target: T4, His-tagged human FcγRIIa allele R131 (human, UniProt P12318 34-218); experiment: as above
# T4 construct: also called FcγRIIa R131
# T4 sequence (looked up): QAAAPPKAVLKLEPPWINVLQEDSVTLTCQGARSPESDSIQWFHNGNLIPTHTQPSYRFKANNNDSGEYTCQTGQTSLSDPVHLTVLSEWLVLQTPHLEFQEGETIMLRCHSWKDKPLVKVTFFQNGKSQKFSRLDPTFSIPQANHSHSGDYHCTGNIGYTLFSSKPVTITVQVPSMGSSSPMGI
# Experimental: as §1
# [5] = target: T5, Recombinant human FcγRIIIa (F158) (human, UniProt P08637 17-208); experiment: as above
# T5 construct: also called FcγRIIIa allele F158; His-tagged human FcγRIIIa F158
# T5 sequence (P08637 other isoform, or with tags, fused parts or gaps limits assumed): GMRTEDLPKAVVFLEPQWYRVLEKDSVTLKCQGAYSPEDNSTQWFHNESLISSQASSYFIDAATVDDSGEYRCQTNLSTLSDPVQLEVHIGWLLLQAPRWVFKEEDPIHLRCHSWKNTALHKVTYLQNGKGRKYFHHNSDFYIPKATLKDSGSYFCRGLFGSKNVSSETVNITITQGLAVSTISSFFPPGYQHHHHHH
# Experimental: as §1
# T2 sequence (P08637 other isoform, or with tags, fused parts or gaps limits assumed): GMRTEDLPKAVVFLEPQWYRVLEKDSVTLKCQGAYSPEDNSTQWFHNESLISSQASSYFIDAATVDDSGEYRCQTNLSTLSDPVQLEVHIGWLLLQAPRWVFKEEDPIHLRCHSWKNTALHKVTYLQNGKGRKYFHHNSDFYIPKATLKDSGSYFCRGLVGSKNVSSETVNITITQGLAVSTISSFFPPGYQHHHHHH
# T1 sequence (P02745 23-245, chain 1 of 3): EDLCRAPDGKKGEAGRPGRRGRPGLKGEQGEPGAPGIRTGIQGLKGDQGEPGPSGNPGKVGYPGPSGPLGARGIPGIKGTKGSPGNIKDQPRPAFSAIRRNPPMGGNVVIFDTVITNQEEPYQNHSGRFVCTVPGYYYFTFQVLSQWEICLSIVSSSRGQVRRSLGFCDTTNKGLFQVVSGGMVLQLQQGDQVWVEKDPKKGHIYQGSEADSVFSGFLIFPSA
# T1 sequence (P02746 28-253, chain 2 of 3): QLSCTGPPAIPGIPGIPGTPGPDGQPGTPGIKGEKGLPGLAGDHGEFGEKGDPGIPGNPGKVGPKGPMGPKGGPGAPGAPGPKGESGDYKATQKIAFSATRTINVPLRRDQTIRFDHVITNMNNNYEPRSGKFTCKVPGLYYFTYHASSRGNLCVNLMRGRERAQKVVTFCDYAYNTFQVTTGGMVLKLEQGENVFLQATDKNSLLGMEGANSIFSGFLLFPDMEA
# T1 sequence (P02747 29-245, chain 3 of 3): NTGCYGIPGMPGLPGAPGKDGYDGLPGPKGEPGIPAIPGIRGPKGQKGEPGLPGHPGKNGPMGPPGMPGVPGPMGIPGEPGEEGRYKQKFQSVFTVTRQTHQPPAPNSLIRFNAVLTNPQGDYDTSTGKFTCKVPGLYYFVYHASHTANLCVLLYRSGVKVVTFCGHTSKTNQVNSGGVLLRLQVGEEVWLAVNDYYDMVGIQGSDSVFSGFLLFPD
binder,measurement,setting,value
B1,binding result,[1],no binding (tested: 3 µg/ml of purified human C1q)
same,binding result,[2],binds
same,binding result,[3],binds
same,binding result,[4],binds
same,binding result,[5],binds
